According to patent US20200299408A1:

Tests used:
[1] = molecular target: human HER2 on cells (human) (UniProt P04626)
[2] = molecular target: HER2 extracellular domain (ECD) (UniProt P04626); assay: HER2 binding affinity of the HER2 arm; assay and form of HER2 not stated on the sheet or in the legend
[3] = molecular target: HER2 extracellular domain (ECD) (UniProt P04626); assay: HER2 KD relative to 4D5 (WT); assay not stated

In the case of hu4D5.v5 (bispecific antibody), the EC50 of SKBR3 target cell killing [1] is reported as 0.075 µg/mL, the SKBR3 EC50 fold (relative to 4D5) [1] is reported as 9900 fold and the Kd [2] is reported as 15.6 nM. For the same substance, the KD fold [3] was 31.2 fold.
